pKd: −log10 of the molar value.
What was measured:
[1] = tested on: 4T1 breast cancer cells; assay: 4T1 breast cancer model, ADG106 with docetaxel; format: in vivo, BALB/c mice; details: 5 mg/kg; ADG106 i.p. twice a week 4 doses, Docetaxel i.v. once a week 3 doses
Source text: Tumor growth was monitored twice weekly and is reported as mean tumor volume ±SEM over time.

[2] = tested on: Lewis lung cancer cells; assay: Lewis lung cancer model, ADG106 with cisplatin; format: in vivo, C57BL/6 mice; details: 5 mg/kg i.p.
Source text: C57BL/6 mice (n=8 per group, female, 6-8 weeks old) were transplanted subcutaneously with 5×10^5 Lewis lung cancer cells. […] Tumor growth was monitored twice weekly and reported as mean tumor volume ±SEM over time.

[3] = tested on: LLC-CD20 cells; assay: LLC-CD20 lung cancer model, ADG106 with rituximab; format: in vivo, C57BL/6 mice; details: 10 mg/kg i.p. twice a week for 3 weeks
Source text: C57BL/6 mice (n=6 per group, female, 6-8 weeks old) were transplanted subcutaneously with 5×10^5 LLC-CD20 cells, a Lewis lung cancer cell line expressing CD20. […] Tumor growth was monitored twice weekly and reported as mean tumor volume ±SEM over time.

[4] = biological target: T1, CD137 (Homo sapiens, UniProt Q07011); assay: Cellular NFκB reporter gene assay (CD137-expressing NFκB-Luc Jurkat reporter cells); format: cell-based; set-up: expressed in transfected cells; host or cells: NFκB-Luc Jurkat reporter cells (with or without co-cultured CHO-K1 cells expressing human FcγRIIb)
Description: The CD137-expressing NFκB-Luc Jurkat reporter cells were stimulated with the anti-CD137 antibodies in the absence (left panel) or presence (right panel) of co-cultured CHO-K1 cell expressing human FcγRIIb. Luciferase activity was measured by bioluminescence assay.

[5] = biological target: T1, CD137; assay: Binding affinity (KD) by surface plasmon resonance (SPR); details: read-out: binding affinity (KD)
[6] = biological target: T1, CD137; assay: Receptor occupancy calculated from drug plasma concentration and KD; details: 0.1 mg/kg, MTD for Urelumab

T1 sequence (Q07011 24-255): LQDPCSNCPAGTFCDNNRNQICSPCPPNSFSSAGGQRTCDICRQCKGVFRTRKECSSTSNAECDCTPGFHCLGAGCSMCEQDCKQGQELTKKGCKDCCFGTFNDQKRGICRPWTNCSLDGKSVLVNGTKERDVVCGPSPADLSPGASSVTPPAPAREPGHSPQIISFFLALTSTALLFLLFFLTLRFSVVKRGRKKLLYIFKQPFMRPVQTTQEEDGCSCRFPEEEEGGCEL

In the case of CC(=O)O[C@@]12CO[C@@H]1C[C@H](O)[C@@]1(C)C(=O)[C@H](O)C3=C(C)[C@@H](OC(=O)[C@H](O)[C@@H](NC(=O)OC(C)(C)C)c4ccccc4)C[C@@](O)([C@@H](OC(=O)c4ccccc4)[C@H]21)C3(C)C [Docetaxel, docetaxel, reference compound], the “anti-tumor activity, mono-therapy” value [1] was “marginal anti-tumor activity”.

For N.N.[Cl][Pt][Cl] [cisplatin, reference compound], the “anti-tumor activity, monotherapy” value [2] was “showed anti-tumor activity”.

In the case of “Rituximab: anti-CD20 antibody [reference compound]”, the “tumor growth, single agent” value [3] was “only weakly inhibited tumor growth”.

“Urelumab: clinical reference anti-CD137 mAb [reference compound]” was tested, and the “human CD137 agonism without crosslinking” value ([4]; no crosslinking) was “function as a human CD137 agonist without crosslinking”, the “human CD137 agonism following crosslinking” value ([4]; with crosslinking) was “function as agonists” and the pKd [5] was 8.02. For the same molecule, the “Calculated Receptor Occupancy” value [6] was 64%.
